Some results are limits rather than exact numbers.

Experiment [1] addresses T1, human PDL1 expressed on cells (human, UniProt Q9NZQ7 19-290). The experiment can be described thus: cell-based or functional assay.
In experiment [2] the target is T1, human PDL1 expressed on cells. Put plainly: cell-based or functional assay. The source holds these as a separate data set.
In experiment [3] the target is T2, human PDL1 (recombinant, soluble) (human, UniProt Q9NZQ7 19-238).
T2 construct: also called hPDL1; hPD-L1
The experiment can be described thus: PDL1/B7-1 competition ELISA; B7-1 coated, biotinylated PDL1 40 ng/ml. How it is done: (§1) ELISA microplates coated overnight at 4° C. with 4 μg/ml human B7-1 were washed three times with 450 μl wash buffer per well. Plates were blocked for 1 hour at room temperature by adding 300 μl of PBS with 1% BSA and 0.2% tween (dilution buffer) to each well. […] The mixtures were pre-incubated for 1 hour at room temperature under gentle agitation on a rotating mixer (21 rpm) and added to the microplates after 3 wash cycles with 450 μl wash buffer per well. Plates were incubated for 1.5 hours at room temperature under gentle agitation, then 10 ng/ml streptavidin-polyHRP40 was added to each microplate well after three washes with 450 μl of wash buffer per well. After 1 h incubation at RT, plates were washed three times with 450 μl wash buffer and TMB substrate solution was added. The enzymatic reaction was stopped after 6 minutes by addition of 1 M HCl and absorbance was measured at 450 nm using 690 nm as a reference wavelength. For calculation of IC₅₀ values, a four-parameter logistic (4PL) curve fit was performed in Graph Pad Prism using reference subtracted values.

For experiment [4], the target named is T2, human PDL1 (recombinant, soluble). The experiment can be described thus: PDL1/PD-1 competition ELISA; PD-1 coated, biotinylated PDL1 1 ng/ml. How it is done: as §1, with “PD-1” for “B7-1”
Experiment [5] addresses T1, human PDL1 expressed on cells. Put plainly: cell-based or functional assay. The source holds these as a separate data set.
For experiment [6], the target named is T3, Fc tagged human PDL1 (human, UniProt Q9NZQ7 19-238).
T3 construct: also called PDL1-Fc chimeric protein (human); not shown: Fc tag
The experiment can be described thus: SPR Biacore T200; PDL1-Fc captured. As to the method:
(§2) An antibody specific for the Fc region of human IgGs was immobilized on a sensor chip (CM5 sensor chip, GE Healthcare) by amine-coupling. […] After each injection cycle, surfaces were regenerated with one injection of a 3 M MgCl₂ solution. The apparent dissociation (kd) and association (kₐ) rate constants and the apparent dissociation equilibrium constant (KD) were calculated using one-to-one Langmuir binding model.

Experiment [7] addresses T3, Fc tagged human PDL1. Put plainly: SPR Biacore T200; PDL1-Fc captured; molecule 0.12-90 nM. How it is done:
as §2

The target of experiment [8] is T2, human PDL1 (recombinant, soluble). Put plainly: PDL1/B7-1 competition ELISA; B7-1 coated; scFv. How it is done: (§3) ELISA plates were coated by adding 50 μl of PBS containing 4 μg/ml B7-1 overnight at 4° C. Next day, plates were washed three times in overflow mode with 450 μl wash buffer (PBS, 0.005% Tween 20) per wells and 300 μl of blocking buffer (PBS, 1% BSA, 0.2% Tween 20) were added to each well for 1 h at RT on a nutating mixer. […] ELISA pates were washed 3 times in overflow mode with 450 μl wash buffer and two times 50 μl of each dilution was added in adjacent wells of the ELISA plates in order to generate duplicates. Plates were incubated 90 minutes at RT under gentle agitation. After three washes with 450 μl of washing buffer, 50 μl of streptavidin-polyHRP40 was added to each wells of the ELISA plate. After 1 h incubation at RT, plates were washed three times with 450 μl wash buffer and developed for 5 to 10 minutes after addition of 50 μl TMB. Finally, the enzymatic reaction was stopped by addition of 50 μl of 1 M HCl and plate was read at 450 nm using 690 nm as a reference wavelength.

The target is the same in experiment [9]. The experiment can be described thus: PDL1/PD-1 competition ELISA; PD-1 coated; scFv. How it is done: as §3, with “4 μg/ml PD-1 overnight at” for “4 μg/ml B7-1 overnight at”, “μl of 10 ng/ml streptavidin-polyHRP40 were” for “μl of streptavidin-polyHRP40 was”, “ng/ml streptavidin-polyHRP40 were added to” for “of streptavidin-polyHRP40 was added to”, “the ELISA plates. After 1” for “the ELISA plate. After 1”

Experiment [10] deals with T3, Fc tagged human PDL1. Put plainly: SPR Biacore T200; Fc tagged PDL1 captured; scFv 0.12-30 nM. How it is done: (§4) After each analyte injection cycle, the CM5 sensor chip was regenerated and new antigen was captured. The scFvs were injected as analyte using a dose response multicycle kinetic assay with concentrations of the analyte ranging from 0.12 to 30 nM diluted in running buffer for 5 min and dissociation of the protein was allowed to proceed for 12 min. Obtained sensorgrams were fitted using the 1:1 binding model.

Experiment [11] addresses cynomolgus PDL1, recombinant (Sino Biological) / PDL1-Fc chimeric protein (cynomolgus (Macaca fascicularis), UniProt G7PSE7 19-238). The experiment can be described thus: SPR Biacore T200; cynomolgus PDL1 (Sino Biological) captured; scFv as analyte. As to the method: as §4
Experiment [12] concerns the target T1, human PDL1 expressed on cells. The experiment can be described thus: cell-based or functional assay. This is another data set of the same source.

Chain of cynomolgus PDL1, recombinant (Sino Biological) / PDL1-Fc chimeric protein (G7PSE7 entry or part of it mutant limits assumed): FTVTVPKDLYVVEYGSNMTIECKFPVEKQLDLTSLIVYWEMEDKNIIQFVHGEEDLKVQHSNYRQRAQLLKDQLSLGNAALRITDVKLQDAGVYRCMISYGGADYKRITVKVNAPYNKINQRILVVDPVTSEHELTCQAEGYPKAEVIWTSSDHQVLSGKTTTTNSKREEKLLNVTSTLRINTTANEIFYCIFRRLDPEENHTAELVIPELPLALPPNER

B1: PRO885 (38-02-A04 sc01 scDb-i/33-03-G02 sc01 scDb-o) (bispecific antibody)
chain: DIQMTQSPSSLSASVGDRVTITCQASQSINDYLAWYQQKPGKAPKLLIYKASTLASGVPSRFSGSGSGTDFTLTISSLQPEDFATYYCQQGYIITDIDNVFGTGTKVTVLGGGGGSQVQLQESGPGLVKPSETLSLTCKVSGFSFSNSYWICWIRQPPGKGLEWIGCTFVGSSDSTYYANWAKGRVTISVDSSKNQFSLKLSSVTAADTAVYYCARHPSDAVYGYANNLWGQGTLVTVSSGGGGSGGGGSGGGGSGGGGSIQMTQSPSSLSASVGDRVTITCQASQSINNVLAWYQQKPGKAPKLLIYRASTLASGVPSRFSGSGSGTDFTLTISSLQPEDFATYYCQSSYGNYGDFGTGTKVTVLGGGGGSQVQLQESGPGLVKPSETLSLTCKVSGFSFSSGYDMCWIRQPPGKGLEWIGCVVAGSVDITYYASWAKGRVTISVDSSKNQFSLKLSSVTAADTAVYYCARKDAYSDAFNLWGQGTLVTVSS
Turning to B1, the “IL-2 secretion of SEA stimulated PBMC, EC50 in ng/ml” value in experiment [1] turned out to be 39.9 ng/mL. Moreover, the “NF-AT potency assay IC50” value in experiment [2] stood at 137 ng/mL. Moreover, the IC50 amounted to 12.2 ng/mL in [3] and 8.35 ng/mL in [4].

B2: PRO1126 (38-02-A04 sc01 scDb-i/33_03_G02 sc03 Full scDb-o) (bispecific antibody)
chain: DFQLTQSPSSLSASVGDRVTITCQASQSINDYLAWYQQKPGKSPKLLIYKASTLASGVPSRFSGSGSGTDFTLTISSLQPEDFATYYCQQGYIITDIDNVFGTGTKVTVLGGGGGSQVQLQESGPGLVKPSETLSLTCKVSGFSFSNSYWICWIRQPPGKGLEWIGCTFVGSSDSTYYANWAKGRVTISVDSSKNQFSLKLSSVTAADTAVYYCARHPSDAVYGYANNLWGQGTLVTVSSGGGGSGGGGSGGGGSGGGGSIQMTQSPSSLSASVGDRVTITCQASQSINNVLAWYQQKPGKAPKLLIYRASTLASGVPSRFSGSGSGTDFTLTISSLQPEDFATYYCQSSYGNYGDFGTGTKVTVLGGGGGSQSQLQESGPGLVKPSETLSLTCKASGFSFSSGYDMCWVRQPPGKGLEWIACVVAGSVDITYYASWAKGRVTISKDSSKNQVSLKLSSVTAADTAVYFCARKDAYSDAFNLWGQGTLVTVSS
Take B2: in [5], the “NFAT reporter gene assay IC50” value is 48.1 ng/mL and the “NFAT reporter gene assay, improvement of neutralization potency against PRO885” value came out at 3 fold. Besides, the “fold improvement in affinity against the CDR graft (PRO885)” value with Fc tagged human PDL1 [6] was found to be 20 fold. Moreover, in experiment [4], the half-inhibitory concentration (IC50) was 1.28 ng/mL. The dissociation constant (Kd) with Fc tagged human PDL1 [7] was 3.5 pM.

B3: PRO1013 (37-20-B03-sc02 scFv) (scFv)
scFv: DIQMTQSPSSLSASVGDRVTITCQASQSIGTYLAWYQQKPGKAPKLLIYRAFILASGVPSRFSGSGSGTDFTLTISSLQPEDFATYYCQSNFYSDSTTIGPNAFGTGTKVTVLGGGGGSGGGGSGGGGSGGGGSQVQLVQSGAEVKKPGASVKVSCKASGFSFNSDYWIYWVRQAPGQGLEWMGSIYGGSSGNTQYASWAQGRVTMTRDTSISTAYMELSSLRSEDTAVYYCARGYVDYGGATDLWGQGTLVTVSS
notes: also called 37-20-B03 CDR, VH1
Regarding B3, the “NF-AT potency assay IC50” value in experiment [2] is 21.3 ng/mL. Moreover, the IC50 worked out at 4.05 ng/mL in [3] and 0.57 ng/mL in experiment [4].

B4: PRO997/PRO908 (37-20-B03-sc01 scFv) (scFv)
scFv: DIQMTQSPSSLSASVGDRVTITCQASQSIGTYLAWYQQKPGKAPKLLIYRAFILASGVPSRFSGSGSGTDFTLTISSLQPEDFATYYCQSNFYSDSTTIGPNAFGTGTKVTVLGGGGGSGGGGSGGGGSGGGGSQVQLQESGPGLVKPSETLSLTCKVSGFSFNSDYWIYWIRQPPGKGLEWIGSIYGGSSGNTQYASWAQGRVTISVDSSKNQFSLKLSSVTAADTAVYYCARGYVDYGGATDLWGQGTLVTVSS
notes: VL-linker-VH, VH4 CDR graft; PRO997 was made in CHO-S cells, PRO908 in bacteria; also called 37-20-B03 CDR
Consider B4, for which, in experiment [8], the IC50 amounted to 1.21 ng/mL and the “Maximum Inhibition (%)” value was 93.1%. For the same molecule, the “IL-2 secretion of SEA stimulated PBMC, EC50 in ng/ml” value in [1] worked out at 40.9 ng/mL. Also, in [9], the half-maximal inhibitory concentration (IC50) came to 0.33 ng/mL and the “Maximum Inhibition (%)” value is 100%. The “NF-AT potency assay IC50” value in [2] amounted to 11.1 ng/mL. Also, the IC50 in experiment [3] is 6.36 ng/mL. The “NFAT reporter gene assay, fold potency of VH4 graft (PRO997) against VH1 graft (PRO1013)” value in experiment [5] was ~2 fold. Further, in the experiment with Fc tagged human PDL1 [10], the dissociation constant (Kd) was determined as 5.94 pM, the koff worked out at 4.02e-05 s⁻¹ and the kon is 6.76e+06 M⁻¹ s⁻¹. Further, in [11], the “KD, cyno/KD, human” value is < 0.28; the Kd was < 1.68 pM; the kon was found to be 5.96e+06 M⁻¹ s⁻¹. In addition, in the experiment with Fc tagged human PDL1 [6], the “fold higher affinity against the STR graft of clone 33-03-G02” value was ~2 fold. For the same molecule, the IC50 in experiment [4] came out at 0.5 ng/mL. Binding in the experiment with Fc tagged human PDL1 [7] was characterised by a dissociation constant (Kd) of 1.7 pM. Also, in experiment [12], the “reporter gene assay IC50” value was 8.02 ng/mL and the “reporter gene assay Maximum Inhibition (%)” value stood at 95.3%.

The values above are taken from patent US20200283528A1 (NUMAB THERAPEUTICS, published 2020).
